Target: ClpA (E. coli) (UniProt P0ABH9)
Test: cell-based or functional assay

UniProt P0ABH9, sequence (P0ABH9 whole entry): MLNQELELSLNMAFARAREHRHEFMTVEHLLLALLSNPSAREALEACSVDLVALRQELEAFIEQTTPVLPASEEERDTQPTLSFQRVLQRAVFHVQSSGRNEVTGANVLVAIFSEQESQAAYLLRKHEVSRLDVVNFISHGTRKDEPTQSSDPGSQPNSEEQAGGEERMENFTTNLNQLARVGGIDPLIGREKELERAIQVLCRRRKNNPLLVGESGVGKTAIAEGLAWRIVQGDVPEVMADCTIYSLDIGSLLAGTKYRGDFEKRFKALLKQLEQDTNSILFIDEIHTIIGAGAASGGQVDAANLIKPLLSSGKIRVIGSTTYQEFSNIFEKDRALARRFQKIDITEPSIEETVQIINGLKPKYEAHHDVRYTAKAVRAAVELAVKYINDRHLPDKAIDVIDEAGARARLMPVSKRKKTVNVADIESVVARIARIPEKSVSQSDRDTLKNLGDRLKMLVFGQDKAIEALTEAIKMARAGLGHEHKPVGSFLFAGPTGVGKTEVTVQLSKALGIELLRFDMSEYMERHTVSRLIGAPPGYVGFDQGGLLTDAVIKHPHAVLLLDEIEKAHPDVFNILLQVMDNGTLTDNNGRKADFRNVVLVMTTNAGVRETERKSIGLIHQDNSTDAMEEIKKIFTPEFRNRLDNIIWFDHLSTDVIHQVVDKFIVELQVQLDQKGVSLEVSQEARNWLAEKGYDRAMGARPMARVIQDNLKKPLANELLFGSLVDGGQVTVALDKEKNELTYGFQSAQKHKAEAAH

ClpS showed an MDH activity (reactivation of heat-aggregated malate dehydrogenase), rate and yield greater than 2 fold.

Source: patent EP1149909A1
